From patent US20200179497A1
Like-named read-outs stand apart in the source and are kept apart here.

Experiments:
Test in all cases: cell-based or functional assay
[1] = molecular target: IVIg (Octagam)
[2] = molecular target: IVIg (Octagam); remark: listed apart in the source
[3] = molecular target: denosumab (XGEVA)
[4] = molecular target: adalimumab (Humira)

| Substance | Conc. of enzyme, 2nd IgG heavy chain, scIgG to F(ab')2 (gel) [1] | enzyme concentration giving a dominating scIgG band on SDS-PAGE [1] | enzyme concentration giving mainly scIgG on SDS-PAGE [1] | Conc. of enzyme, 1st IgG heavy chain, IgG to scIgG (gel) [2] | Conc. of enzyme, 2nd IgG heavy chain, scIgG to F(ab')2 (gel) [2] | enzyme concentration giving a dominating F(ab')2 band on SDS-PAGE [3] | enzyme concentration giving a single intense scIgG band on SDS-PAGE ([3]; scale: pig/ml) | enzyme concentration giving equal cleavage on SDS-PAGE [4] |
| --- | --- | --- | --- | --- | --- | --- | --- | --- |
| BX1001865 (IdeS lacking tag, produced to GMP standard) (enzyme) | 6000 ng/mL | 1.9 ng/mL | 1.9 ng/mL | 1900 ng/mL | 7500 ng/mL | – | – | – |
| pCART124 (IdeS with additional N terminal methionine and histidine tag) (enzyme) | 6000 ng/mL | 1.9 ng/mL | – | 1900 ng/mL | 7500 ng/mL | – | – | – |
| pCART144 (IdeZ with additional N terminal methionine and histidine tag) (enzyme) | – | – | – | – | – | 3.3 µg/mL | 0.12 | 4.6 ng/mL |
